In patent US20140112919A1:

B1: recombinant mouse IL-10 (ligand)
chain: SRGQYSREDNNCTHFPVGQSHMLLELRTAFSQVKTFFQTKDQLDNILLTDSLMQDFKGYLGCQALSEMIQFYLVEVMPQAEKHGPEIKEHLNSLGEKLKTLRMRLRRCHRFLPCENKSKAVEQVKSDFNKLQDQGVYKAMNEFDIFINCIEAYMMIKMKS
B2: rat anti hIL-10 mAb 12G8 (antibody, from a related filing, V domains shown)
VH: EVQLVESGGGLVRPGGSLRLSCTASGFTFSDYHMAWVRQSPDKGLEWVASITLDATYTYYRDSVRGRFTISRNNAKTTLYLQMDSLRSEDTATFYCTRHRGFSVWLDYWGQGVMVTVSS
VL: DIQMTQSPSLLSASVGDRVTLNCKTSQNIFENLAWYQQKLREPPKLLIFNASPLQAGIPSRFSGSGSGTDFTLTITSLQPEDVATYFCHQYYSGYTFGPGTKLELKR
B3: humanized anti-human IL-10 antibody SCH 708980 (12G8) (antibody, V domains shown)
VH: QVQLVESGGGVVQPGRSLRLSCAASGFTFSDYHMAWVRQAPGKGLEWVASITLDATYTYYRDSVRGRFTISRDNSKNTLYLQMNSLRAEDTAVYYCARHRGFSVWLDYWGQGTLVTVSS
VL: DIQMTQSPSSLSASVGDRVTITCKTSQNIFENLAWYQQKPGKAPKLLIYNASPLQAGVPSRFSGSGSGTDFTLTISSLQPEDFATYYCHQYYSGYTFGPGTKLELKR

What was measured:
rat anti hIL-10 mAb 12G8 = assay: competitive ECLA (IGEN): unlabeled IL-10 titrated against hIL-10-biotin for binding to rat 12G8
[1] = target: recombinant human IL-10 (human) (UniProt P22301); assay: Biacore, mean ± S.D. (n); format not described
[2] = target: recombinant cyno IL-10 (cyno) (UniProt P79338); assay: Biacore, mean ± S.D. (n); format not described
[3] = target: T1, recombinant mouse IL-10 (mouse) (UniProt P18893); assay: Biacore, mean ± S.D. (n); format not described
T1 sequence: B1 chain

[4] = target: recombinant human IL-10 (human) (UniProt P22301)
[5] = target: recombinant human IL-10 (human) (UniProt P22301); assay: KinExA, mean (n)

recombinant cyno IL-10 (cyno), sequence (P79338 19-178 limits assumed): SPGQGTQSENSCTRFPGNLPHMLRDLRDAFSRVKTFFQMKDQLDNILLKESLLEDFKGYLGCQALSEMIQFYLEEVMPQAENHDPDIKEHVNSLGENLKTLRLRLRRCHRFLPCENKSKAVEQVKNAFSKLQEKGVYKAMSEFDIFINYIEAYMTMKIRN

Binder | IC50 (rat anti hIL-10 mAb 12G8) [nM] | Kd [1] [nM] | Kd [2] [nM] | Kd [3] [nM] | Bioassay IC50(pM) [4] [pM] | Kd [5] [nM]
B1 | 37.9 |  |  |  |  | 
B2 |  | 0.277 | 0.33 | 7.4 | 66 | 0.023
B3 |  |  |  |  | 93 | 
